In general, Kd refers to the free concentration of one partner at which half of the binding sites on the other are occupied at equilibrium, for simple one-to-one binding. A higher Kd goes with a looser complex. What is called koff is a measure of how fast the partners let go of each other. A low value points to a long-lived complex. In general, kon refers to the rate constant with which the complex forms. The low end stands for slow association, the high end for fast association.

Positions count from the first letter of the chain named.

The chains are these.
B1: mouse monoclonal antibody 2F7 (antibody, V domains shown)
VH: DVKLVESGGGLVKLGGSLKLSCAASGFTFSSYYMSWVRQTPEKRLELVATINSNGGSTYYPDTVKGRITISRDNAKNTLQLQMSSLRSEDTALYYCVRQNYEGAYWGQGTLVTVSA
VL: DVLMTQTPLSLPVTLGDQASISCRSSQSIVHSNGNTYLEWYLQKPGQSPKLLIYKVSNRFSGVPDRFSGSGSGTDFTLKISRVEAEDLGVYYCFQSSHVPWTFGGGTKLEIK
notes: Mouse hybridoma antibody; also called Mouse 2F7
B2: mouse monoclonal antibody 3E8 (antibody, V domains shown)
VH: B1 VH
VL: B1 VL
notes: Mouse hybridoma antibody; also called Mouse 3E8
B3: rabbit monoclonal antibody 1 (1H3-1K3) (antibody, V domains shown)
VH: QSVEESGGRLVTPGTPLTLTCTVSGFSLSRYYMTWVRQAPGKGLEYIGVIIPGGTTYYASWAKGRFTISKTSTTVDLRITSPTTEDTATYFCAGGPTGNSHFTLWGQGTLVTVS
VL: VMTQTPSSKSVPVGGTVTINCQASESVYNNNHLSWYQQKSGQPPKLLIYEASKLESGVPPRFKGSGSGTQFTLTISDVVCDDAATYYCSGYKRVTTDGIAFGGGTEVVVK
notes: Recombinant; also called Rabbit 1; clone 1
B4: rabbit monoclonal antibody 14 (14H1-14K2) (antibody, V domains shown)
VH: QEQLEESGGDLVKPEGSLTLTCTASGFSFSSNYVMCWVRQAPGKGLEWVACIWFAGIVDTTYYATWAKGRFTISKTSSTTVTLQMTSLTAADTATYFCARNPVGSVNLWGQGTLVTVS
VL: VMTQTPSSKSVPVGGSVTINCQASESVYSNNRLSWYQQKPGQPPKLLIYYASTLESGVPSRFKGSGFGTHFTLTISGAQCDDAATYYCAGWRGARTDGVDFGGGTEVVVK
notes: Recombinant; also called Rabbit 14; clone 14
B5: rabbit monoclonal antibody 17 (17H3-17K3) (antibody, V domains shown)
VH: QEQLVESGGGLVQPGASLTLTCTASGFSFSSSYVMCWVRQAPGKGLEWITCSDTGINTWYASWAKGRFTISKTSSTTVTLQMTSLTAADTATYFCARRYTGDTYLGNFNLWGQGTLVTVS
VL: AQVLTQTPASVSAAVGGTVTINCQASQSVYKNNYLSWYQQKPGQPPKLLIYKASTLASGVPSRFKGSGSGTQFTLTISDVQCDDAATYYCAGGWRSLNAFGGGTEVVVK
notes: Recombinant; also called Rabbit 17; clone 17
B6: rabbit monoclonal antibody 38 (38H1-38K1) (antibody, V domains shown)
VH: B3 VH with L28F, R30A, Y46F, I50T, G53I, T55R, D76H, R78K, T89A
VL: B3 VL with G15D, H32Q, S40P, E50Q, P60S, S89A, R93S, V94P
notes: Recombinant; also called clone 38

T3 sequence (Q13148 whole entry): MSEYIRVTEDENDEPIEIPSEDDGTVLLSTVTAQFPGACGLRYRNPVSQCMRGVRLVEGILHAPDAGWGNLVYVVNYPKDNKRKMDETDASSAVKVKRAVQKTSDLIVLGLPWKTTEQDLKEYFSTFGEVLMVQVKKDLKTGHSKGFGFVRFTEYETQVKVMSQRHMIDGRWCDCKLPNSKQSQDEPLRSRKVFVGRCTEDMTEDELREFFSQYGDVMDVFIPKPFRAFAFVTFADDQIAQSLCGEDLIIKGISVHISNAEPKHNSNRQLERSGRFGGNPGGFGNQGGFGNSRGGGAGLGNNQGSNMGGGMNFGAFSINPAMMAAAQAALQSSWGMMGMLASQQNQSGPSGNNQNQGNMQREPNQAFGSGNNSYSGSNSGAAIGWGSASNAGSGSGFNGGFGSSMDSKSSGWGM

The target of the first assay is T1, DAGWGNLc (SEQ ID NO: 9) peptide conjugated to bovine serum albumin (human; bovine, UniProt P02769 25-607, N-terminus acetylated; C-terminal Cys conjugated to BSA).
T1 construct: TDP-43 residues 65-71 plus an added C-terminal cysteine; also called Peptide conjugated to bovine serum albumin (BSA)
T1 sequence (P02769 25-607 limits assumed): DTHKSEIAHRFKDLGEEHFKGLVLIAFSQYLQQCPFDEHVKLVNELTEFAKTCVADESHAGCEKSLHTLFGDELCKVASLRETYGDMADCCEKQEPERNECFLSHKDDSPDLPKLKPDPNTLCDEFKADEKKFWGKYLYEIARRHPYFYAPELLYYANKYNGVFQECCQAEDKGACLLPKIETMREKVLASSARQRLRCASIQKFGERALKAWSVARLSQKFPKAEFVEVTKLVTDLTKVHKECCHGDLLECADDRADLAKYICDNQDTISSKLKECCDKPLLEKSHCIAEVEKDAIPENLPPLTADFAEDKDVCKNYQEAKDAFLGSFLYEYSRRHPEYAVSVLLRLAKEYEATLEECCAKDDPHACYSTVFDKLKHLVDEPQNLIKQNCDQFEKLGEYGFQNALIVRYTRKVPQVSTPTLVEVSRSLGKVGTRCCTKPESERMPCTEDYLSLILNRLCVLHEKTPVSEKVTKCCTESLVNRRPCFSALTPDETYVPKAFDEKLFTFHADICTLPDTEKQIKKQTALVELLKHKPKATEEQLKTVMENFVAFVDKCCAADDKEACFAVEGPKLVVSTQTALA
Nature of the assay: SPR, peptide-BSA immobilized (about 50 RU), antibody injected, Langmuir 1:1 fit. The protocol:
Surface plasmon resonance (SPR) analysis was used to measure the binding kinetics of monoclonal antibodies to the peptide epitope. Peptide conjugated to bovine serum albumin (BSA) was immobilized at a very low density (approximately 50 RUs) on flow cells of a sensor chip. Purified mouse or rabbit monoclonal antibodies diluted 4-fold from 31.25 nM to 0.24 nM were injected sequentially over the surfaces for approximately 5 min followed by dissociation in buffer and surface regeneration. Binding parameters were calculated using kinetic curve fitting and a Langmuir 1:1 interaction model.
In turn, B1 gave a Kd of 0.622 nM, a koff of 0.00176 s⁻¹ and a kon of 2.83e+06 M⁻¹ s⁻¹.

B2 showed a Kd of 0.722 nM, a koff of 0.002 s⁻¹ and a kon of 2.77e+06 M⁻¹ s⁻¹.

The molecule B3 had a Kd of 0.062 nM, a koff of 2.5e-05 s⁻¹ and a kon of 403000 M⁻¹ s⁻¹.

Molecule B4 registered a Kd of 0.0151 nM, a koff of 9.04e-06 s⁻¹ and a kon of 599000 M⁻¹ s⁻¹.

For the molecule B5, binding was put at a Kd of 0.0919 nM, the off-rate (koff) was found to be 4.32e-05 s⁻¹ and the kon was 470000 M⁻¹ s⁻¹.

In a further assay the target is T2, HA-tagged wild-type human TDP-43 with the original NLS sequence (WT-TDP43) (human, UniProt Q13148 1-414).
T2 construct: whole, on cells; Overexpressed inside transfected HEK293FT cells; also called wildtype TDP-43-HA; WT nuclear TDP-43-HA; not shown: HA tag
T2 sequence (Q13148 whole entry): as the sequence (Q13148 whole entry) above
As to the kind of experiment: immunocytochemistry, transfected HEK293FT cells; column: Binding to nuclear WT TDP-43.
Take B6: the binding result is “no binding (tested: 10 ug/ml)”.

Consider B4, for which the binding result is “no binding (tested: 10 ug/ml)”.

The next assay has as its target T3, endogenous TDP-43 of HEK293FT cells (human, UniProt Q13148 1-414).
T3 construct: whole, on cells; Two states of the same protein are tested: nuclear in cells transfected with empty vector, and in the stress granules of cells stressed with sodium arsenite; the state is named in each row; also called endogenous, nuclear WT TDP-43; TDP-43 in physiologic stress granules
As to the kind of experiment: immunocytochemistry, arsenite-stressed HEK293FT cells; column: Binding to stress granules.
As for B6, the binding result was “no binding (tested: 10 ug/ml)”.

Take B4: the binding result is “no binding (tested: 10 ug/ml)”.

The values above are taken from patent publication US20220056118A1 (UNIVERSITY OF BRITISH COLUMBIA, published 2022).
